Results on one substance are retold here after publication doi:10.1101/2023.07.08.548231.

The target in this experiment is H2AK119Ub nucleosome (UniProt P04908). The experiment is described as follows: cryo-EM structure.

Several values for one entry are separate records, joined by “and”; a condition that tells them apart may be missing. Identical values can stand only once.

GST-SSX1 (human SSX1 residues 111-188 with an N-terminal GST tag), sequence (Q16384 111-188): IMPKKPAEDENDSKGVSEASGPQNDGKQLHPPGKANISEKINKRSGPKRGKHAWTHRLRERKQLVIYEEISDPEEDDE

Take “GST-SSX1 (human SSX1 residues 111-188 with an N-terminal GST tag) (from UniProt Q16384 111-188) (domain or fragment)”: the stoichiometry N (SSX1 per nucleosome) is 2 and 1.
